The supplement of paper PMC9112550, “Optimization of the antimicrobial peptide Bac7 by deep mutational scanning” (BMC Biology, 2022)

Test system: Escherichia coli TOP10
Test: shrunken log2 fold change of peptide-encoding DNA abundance (4.5 h post-induction vs induction); higher = less antimicrobial activity (less host growth inhibition)
Details: time post-induction: 4.5 h; library: site-saturation at positions 5, 18, 19, 20
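Further: peptides expressed intracellularly from a pBAD plasmid library in pooled LB shake-flask culture, induced with 0.3% L-arabinose, DNA abundance read by NGS, three biological replicates, DESeq2 with apeglm shrinkage.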

| Sequence | shrunken log2 fold change |
| --- | --- |
| RRIRARPPRLPRPRPRPVHFPRP | 0.396 |
| RRIRTRPPRLPRPRPRPAWIPRP | -0.27 |
| RRIRYRPPRLPRPRPRPGIAPRP | -0.269 |
| RRIRWRPPRLPRPRPRPKVRPRP | -0.00879 |
| RRIRWRPPRLPRPRPRPDRKPRP | -0.0752 |
| RRIRWRPPRLPRPRPRPAMVPRP | 0.483 |
| RRIRFRPPRLPRPRPRPGGFPRP | 0.42 |
| RRIRTRPPRLPRPRPRPRDVPRP | 0.369 |
| RRIRERPPRLPRPRPRPKLIPRP | -0.0786 |
| RRIRLRPPRLPRPRPRPKHPPRP | -0.09 |
| RRIRCRPPRLPRPRPRPSGHPRP | -0.422 |
| RRIRYRPPRLPRPRPRPCWDPRP | -0.0738 |
| RRIRWRPPRLPRPRPRPHPTPRP | 0.115 |
| RRIRWRPPRLPRPRPRPVKYPRP | -0.632 |
| RRIRFRPPRLPRPRPRPCDNPRP | -0.0843 |
| RRIRNRPPRLPRPRPRPHGKPRP | 0.0681 |
| RRIRTRPPRLPRPRPRPPSGPRP | 0.467 |
| RRIRFRPPRLPRPRPRPQYAPRP | -0.862 |
| RRIRYRPPRLPRPRPRPKNHPRP | -0.919 |
| RRIRSRPPRLPRPRPRPHFDPRP | 0.0286 |
| RRIRPRPPRLPRPRPRPAISPRP | -0.103 |
| RRIRERPPRLPRPRPRPSRAPRP | 0.12 |
| RRIRFRPPRLPRPRPRPMNMPRP | -0.546 |
| RRIRLRPPRLPRPRPRPMEFPRP | -0.00133 |
| RRIRLRPPRLPRPRPRPDESPRP | 0.148 |

| Sequence | shrunken log2 fold change |
| --- | --- |
| RRIRWRPPRLPRPRPRPHCIPRP | -0.207 |
| RRIRLRPPRLPRPRPRPTLHPRP | 0.18 |
| RRIRQRPPRLPRPRPRPTYTPRP | -0.346 |
| RRIRRRPPRLPRPRPRPMHPPRP | 0.552 |
| RRIRDRPPRLPRPRPRPRWDPRP | 0.196 |
| RRIRGRPPRLPRPRPRPAVEPRP | 1.21 |
| RRIRKRPPRLPRPRPRPFYFPRP | 0.00515 |
| RRIRYRPPRLPRPRPRPMSAPRP | -0.0208 |
| RRIRPRPPRLPRPRPRPFFYPRP | -0.214 |
| RRIRLRPPRLPRPRPRPKPHPRP | 0.207 |
| RRIRYRPPRLPRPRPRPRWTPRP | 0.2 |
| RRIRARPPRLPRPRPRPFFCPRP | 0.2 |
| RRIRYRPPRLPRPRPRPGDIPRP | -0.0107 |
| RRIRMRPPRLPRPRPRPDYCPRP | -0.369 |
| RRIRGRPPRLPRPRPRPGEMPRP | 1.31 |
| RRIRTRPPRLPRPRPRPQWWPRP | 0.199 |
| RRIRCRPPRLPRPRPRPTFKPRP | -0.148 |
| RRIRQRPPRLPRPRPRPSMQPRP | -0.0429 |
| RRIRSRPPRLPRPRPRPCMNPRP | -0.206 |
| RRIRHRPPRLPRPRPRPIQDPRP | -0.00151 |
| RRIRMRPPRLPRPRPRPKHYPRP | -0.0523 |
| RRIRSRPPRLPRPRPRPGDMPRP | 0.0129 |
| RRIRLRPPRLPRPRPRPIMMPRP | -0.0614 |
| RRIRSRPPRLPRPRPRPIHDPRP | -0.128 |
| RRIRFRPPRLPRPRPRPHNTPRP | -0.796 |

| Sequence | shrunken log2 fold change |
| --- | --- |
| RRIRDRPPRLPRPRPRPKLLPRP | 0.0314 |
| RRIRNRPPRLPRPRPRPWDMPRP | -0.304 |
| RRIRWRPPRLPRPRPRPAKSPRP | 0.228 |
| RRIRWRPPRLPRPRPRPLMAPRP | 0.247 |
| RRIRKRPPRLPRPRPRPQDYPRP | 0.118 |
| RRIRVRPPRLPRPRPRPIIVPRP | 0.0713 |
| RRIRDRPPRLPRPRPRPHTLPRP | -0.196 |
| RRIRCRPPRLPRPRPRPHNCPRP | -0.491 |
| RRIRIRPPRLPRPRPRPRMVPRP | 0.0922 |
| RRIRMRPPRLPRPRPRPCRYPRP | 0.11 |
| RRIRNRPPRLPRPRPRPDCPPRP | -0.031 |
| RRIRRRPPRLPRPRPRPYLVPRP | -0.0711 |
| RRIRLRPPRLPRPRPRPFCIPRP | -0.22 |
| RRIRHRPPRLPRPRPRPFCNPRP | 0.00929 |
| RRIRVRPPRLPRPRPRPQGQPRP | 0.00581 |
| RRIRIRPPRLPRPRPRPEPVPRP | 0.14 |
| RRIRSRPPRLPRPRPRPSNSPRP | -0.145 |
| RRIRNRPPRLPRPRPRPPKIPRP | 0.0999 |
| RRIRNRPPRLPRPRPRPEMFPRP | 0.0119 |
| RRIRFRPPRLPRPRPRPFWWPRP | 0.398 |
| RRIRFRPPRLPRPRPRPPWFPRP | 0.033 |
| RRIRWRPPRLPRPRPRPDNWPRP | 0.104 |
| RRIRFRPPRLPRPRPRPPVDPRP | 0.41 |
| RRIRYRPPRLPRPRPRPFYIPRP | -1.26 |
| RRIRYRPPRLPRPRPRPEPEPRP | 0.0661 |

| Sequence | shrunken log2 fold change |
| --- | --- |
| RRIRNRPPRLPRPRPRPNVKPRP | -0.324 |
| RRIRCRPPRLPRPRPRPFCQPRP | -0.353 |
| RRIRVRPPRLPRPRPRPIYMPRP | -0.438 |
| RRIRVRPPRLPRPRPRPKLWPRP | 0.127 |
| RRIRGRPPRLPRPRPRPACYPRP | 0.896 |
| RRIRWRPPRLPRPRPRPKEYPRP | 0.02 |
| RRIRQRPPRLPRPRPRPFPRPRP | -0.122 |
| RRIRCRPPRLPRPRPRPNMPPRP | -0.627 |
| RRIRHRPPRLPRPRPRPMCPPRP | -0.0218 |
| RRIRVRPPRLPRPRPRPKVMPRP | -0.12 |
| RRIRRRPPRLPRPRPRPFIHPRP | -0.18 |
| RRIRQRPPRLPRPRPRPTWSPRP | 0.136 |
| RRIRFRPPRLPRPRPRPLRTPRP | 0.703 |
| RRIRERPPRLPRPRPRPPRAPRP | 0.453 |
| RRIRMRPPRLPRPRPRPRRCPRP | 1.08 |
| RRIRRRPPRLPRPRPRPVVNPRP | 0.61 |
| RRIRRRPPRLPRPRPRPSFAPRP | 0.492 |
| RRIRHRPPRLPRPRPRPTKWPRP | 0.0132 |
| RRIRPRPPRLPRPRPRPDKNPRP | -0.308 |
| RRIRSRPPRLPRPRPRPNGKPRP | -0.437 |
| RRIRIRPPRLPRPRPRPFNKPRP | -0.179 |
| RRIRSRPPRLPRPRPRPRTWPRP | 0.0747 |
| RRIRTRPPRLPRPRPRPTCIPRP | -0.503 |
| RRIRTRPPRLPRPRPRPGIMPRP | -0.452 |
| RRIRCRPPRLPRPRPRPDHIPRP | -0.489 |

| Sequence | shrunken log2 fold change |
| --- | --- |
| RRIRCRPPRLPRPRPRPHTWPRP | -0.216 |
| RRIRMRPPRLPRPRPRPANIPRP | -0.0889 |
| RRIRLRPPRLPRPRPRPQLCPRP | 0.118 |
| RRIRPRPPRLPRPRPRPDSTPRP | -0.679 |
| RRIRYRPPRLPRPRPRPMNIPRP | -0.124 |
| RRIRTRPPRLPRPRPRPWTNPRP | -0.148 |
| RRIRWRPPRLPRPRPRPYTTPRP | -0.537 |
| RRIRMRPPRLPRPRPRPDTHPRP | 0.18 |
| RRIRLRPPRLPRPRPRPPKWPRP | 0.532 |
| RRIRYRPPRLPRPRPRPIGFPRP | 0.0062 |
| RRIRMRPPRLPRPRPRPIVNPRP | -0.0202 |
| RRIRQRPPRLPRPRPRPEEYPRP | 0.0748 |
| RRIRLRPPRLPRPRPRPCSMPRP | -0.00844 |
| RRIRGRPPRLPRPRPRPCENPRP | 0.136 |
| RRIRKRPPRLPRPRPRPEPQPRP | 0.637 |
| RRIRERPPRLPRPRPRPKYNPRP | -0.7 |
| RRIRCRPPRLPRPRPRPATVPRP | 0.141 |
| RRIRGRPPRLPRPRPRPRGKPRP | 0.341 |
| RRIRPRPPRLPRPRPRPKFFPRP | 0.0479 |
| RRIRWRPPRLPRPRPRPEVHPRP | -0.039 |
| RRIRFRPPRLPRPRPRPPHYPRP | -0.124 |
| RRIRGRPPRLPRPRPRPEHDPRP | 0.835 |
| RRIRIRPPRLPRPRPRPTYLPRP | -0.463 |
| RRIRSRPPRLPRPRPRPIFFPRP | 0.124 |
| RRIRSRPPRLPRPRPRPIWCPRP | -0.288 |
